In patent US20110150903A1 (Sanofi, published 2011):
Values joined by “and” are separate entries in the source; they are usually repeats but may differ in a detail not shown here. Equal values may be shown once.

T1: hFGFR3-Fc (human, UniProt P22607 23-375)
T1 construct: extracellular domain; Bought from R&D Systems; not shown: Fc domain of human IgG1
T1 sequence (looked up): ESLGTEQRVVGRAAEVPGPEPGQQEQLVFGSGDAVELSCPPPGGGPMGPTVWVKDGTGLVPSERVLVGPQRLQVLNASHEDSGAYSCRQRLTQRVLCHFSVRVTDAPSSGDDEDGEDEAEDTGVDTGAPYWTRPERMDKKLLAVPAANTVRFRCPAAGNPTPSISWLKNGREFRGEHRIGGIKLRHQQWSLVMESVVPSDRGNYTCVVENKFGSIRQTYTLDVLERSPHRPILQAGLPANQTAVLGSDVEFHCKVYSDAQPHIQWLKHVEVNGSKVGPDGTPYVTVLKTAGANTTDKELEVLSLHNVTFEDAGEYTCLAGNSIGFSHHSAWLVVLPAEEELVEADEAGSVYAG

B1: anti-FGFR4 antagonist monoclonal antibody 40-12 (antibody, mouse IgG1, kappa, V domains shown)
VH: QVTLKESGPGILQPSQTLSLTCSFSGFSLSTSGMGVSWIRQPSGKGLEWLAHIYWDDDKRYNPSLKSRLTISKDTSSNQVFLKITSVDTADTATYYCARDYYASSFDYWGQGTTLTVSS
VL: DIVLTQSPATLSVTPGDRVSLSCRASQSISNYLHWYQQKSHESPRLLIKYASQSISGIPSRFSGSGSGTDFILSFNSVETEDFGMYFCQQSNSWPFTFGSGTKLEIKR
notes: Purified on protein G; also called clone 40-12; anti-FGFR4 40-12
B2: anti-FGFR4 antibody clone 33 (human IgG1 format) (antibody, V domains shown)
VH: EVQLLESGGGLVQPGGSLRLSCAASGFTFSTYWMAWVRQAPGKGLEWVSVIGPSGGMTVYADSVKGRFTISRDNSKNTLYLQMNSLRAEDTAVYYCARINSGSSHFDYWGQGTLVTVSS
VL: QSVLTQPPSASGTPGQGVTISCSGSSSNIGSNSVNWYQQLPGAAPKLLIYSNNLRPSGVPARFSGSKSGTSASLAISGLRSEDEADYYCAAWDDGLDAYVVFGGGTKLTVLG
notes: As for clone 8: human IgG1 format from HEK293; also called antibody 33
B3: clone 33 in the Fab format displayed on phage (Fab, V domains shown)
VH: EVQLLESGGGLVQPGGSLRLSCAASGFTFSTYWMAWVRQAPGKGLEWVSVIGPSGGMTVYADSVKGRFTISRDNSKNTLYLQMNSLRAEDTAVYYCARINSGSSHFDYWGQGTLVTVSS
VL: QSVLTQPPSASGTPGQGVTISCSGSSSNIGSNSVNWYQQLPGAAPKLLIYSNNLRPSGVPARFSGSKSGTSASLAISGLRSEDEADYYCAAWDDGLDAYVVFGGGTKLTVLG
B4: anti-FGFR4 antibody clone 36 (human IgG1 format) (antibody, V domains shown)
VH: EVQLLESGGGLVQPGGSLRLSCAASGFTFSHYWMGWVRQAPGKGLEWVSVISPSGGLTIYADSVKGRFTISRDNSKNTLYLQMNSLRAEDTAVYYCARSSGWALDAFDIWGQGTMVTVSS
VL: QYELTQPPSASGTPGQRVTISCSGSSSNIGSNIVHWYQQLPGTAPKLLIYGNNQRPSGVPDRFSVSKSGSSASLAISGLQSEDEADYYCASWDDSLKAFYVFGTGTKVTVLG
notes: As for clone 8: human IgG1 format from HEK293; also called antibody 36
B5: clone 36 in the Fab format displayed on phage (Fab, V domains shown)
VH: EVQLLESGGGLVQPGGSLRLSCAASGFTFSHYWMGWVRQAPGKGLEWVSVISPSGGLTIYADSVKGRFTISRDNSKNTLYLQMNSLRAEDTAVYYCARSSGWALDAFDIWGQGTMVTVSS
VL: QYELTQPPSASGTPGQRVTISCSGSSSNIGSNIVHWYQQLPGTAPKLLIYGNNQRPSGVPDRFSVSKSGSSASLAISGLQSEDEADYYCASWDDSLKAFYVFGTGTKVTVLG

Assays:
[1] = target: T2, rat FGF-R4 expressed on transfected 300-19 cells (rat, UniProt Q498D6 17-800); assay: displacement of labelled rat FGF2 from rat FGF-R4 on 300-19 cells; rat FGF-R4, rat FGF2; in ng/ml
T2 construct: also called rFGFR4
Procedure: (§1) Firstly, competition binding experiments were carried out.
(§2) The dissociation experiments were carried out using the 300-19 lines transfected with mouse or rat FGF-R4 receptors.

[2] = target: T3, human FGF-R4 recombinant extracellular domain protein, construct not named (human, UniProt P22455 22-369); assay: SPR (BIAcore), antibody captured by anti-Fc antibody on the chip
T3 construct: extracellular domain; also called the FGF-R4 protein; complete extracellular domain of human FGF-R4

[3] = target: T4, mouse FGF-R4 expressed on transfected 300-19 cells (mouse, UniProt Q03142 17-799); assay: displacement of labelled murine FGF2 from mouse FGF-R4 on 300-19 cells; mouse FGF-R4, murine FGF2; in ng/ml
T4 construct: whole, on cells; also called murine FGF-R4
Procedure: as §1, §2

[4] = target: T5, human FGF-R4 expressed on cells (human, UniProt P22455 22-802); assay: displacement of FGF2-AF488 (10 ng/ml) from human FGF-R4 on 300-19 cells
T5 construct: whole, on cells; Functional assays: endogenous receptor of human Hep3b and HUVEC cells; also called human FGF-R4s expressed at the surface of transfected 300-19 cells; FGF-R4 of Hep3b and HUVEC cells

hFGFR4_D3:Fc (SABVA4799) = target: T6, hFGFR4_D3:Fc (SABVA4799) (human); assay: ELISA on coated subdomain-Fc construct
T6 construct: also called fGFGR4_D3::Fc
Source text: (§3) The capture antigen was bound to Immulon-4 enzyme-linked plates (VWR Scientific Inc. Swedesboro, N.J.).

hFGFR4_D2:Fc (SABVA4796) = target: T7, hFGFR4_D2:Fc (SABVA4796) (human); assay: ELISA on coated subdomain-Fc construct
T7 construct: FGF-R4_HUMAN positions 1 to 32 plus 145 to 242 fused to the Fc domain of human IgG1; also called fGFGR4_D2::Fc
Source text: as §3

hFGFR4_D1:Fc (SABVA4794) = target: T8, hFGFR4_D1:Fc (SABVA4794) (human); assay: ELISA on coated subdomain-Fc construct
T8 construct: FGF-R4_HUMAN positions 1 to 179 fused to the Fc domain of human IgG1; also called fGFGR4_D1::Fc
Source text: as §3

hFGFR2-Fc [5] = target: T9, hFGFR2-Fc (human); assay: ELISA on plates coated with the 4 human FGF receptors, antibody concentration not given
T9 construct: Extracellular domain of human FGF-R2 IIIc fused C-terminally to the Fc domain of human IgG1

hFGFR3-Fc [6] = target: T1, hFGFR3-Fc; assay: as above
hFGFR1-Fc [7] = target: T10, hFGFR1-Fc (human); assay: as above
T10 construct: Extracellular domain of human FGF-R1 IIIc fused C-terminally to the Fc domain of human IgG1

mFGFR4-Histag = target: T11, mFGFR4-Histag (murine, UniProt Q03142 19-362); assay: SPR (BIAcore 3000)
T11 construct: also called murine protein mFGFR4; murine FGF-R4

hFGFR4-Histag [8] = target: T12, hFGFR4-Histag (human, UniProt P22455 22-365); assay: SPR (BIAcore 3000)
T12 construct: also called SABVA4614

hFGFR4(D2,D3)-Histag [9] = target: T13, hFGFR4(D2,D3)-Histag (human, UniProt P22455 22-365); assay: ELISA, HEK293 supernatant IgG on coated antigen
T13 construct: also called extracellular domain of FGF-R4 deleted of its D1 domain
Source text: as §3

hFGFR4-Histag [10] = target: T12, hFGFR4-Histag; assay: ELISA, HEK293 supernatant IgG on coated antigen
Source text: as §3

hFGFR2-Fc [11] = target: T9, hFGFR2-Fc; assay: phage Fab ELISA on coated antigen, anti-M13 detection
Source text: (§4) The specificity of each antibody is established by ELISA according to the following protocol: suspensions of phages displaying, at their surface, the antibodies in the Fab format are generated by infection of E. coli bacteria. The capture antigens were bound to Immulon-2 enzyme-linked dishes (VWR Scientific Inc. Swedesboro, N.J.).

hFGFR4(D2,D3)-Histag [12] = target: T13, hFGFR4(D2,D3)-Histag; assay: as above
Source text: as §4

hFGFR3-Fc [13] = target: T1, hFGFR3-Fc; assay: as above
Source text: as §4

hFGFR1-Fc [14] = target: T10, hFGFR1-Fc; assay: as above
Source text: as §4

Row | Binder | Kd (mFGFR4-Histag) | koff (mFGFR4-Histag) | kon (mFGFR4-Histag) | Kd (hFGFR4-Histag [8]) | koff (hFGFR4-Histag [8]) | kon (hFGFR4-Histag [8]) | OD signal at 450 nm (hFGFR4(D2,D3)-Histag [9]) | OD signal at 450 nm (hFGFR4-Histag [10]) | ELISA signal (OD, 450 nm) (hFGFR2-Fc [11]) | ELISA signal (OD, 450 nm) (hFGFR4(D2,D3)-Histag [12]) | ELISA signal (OD, 450 nm) (hFGFR3-Fc [13]) | ELISA signal (OD, 450 nm) (hFGFR1-Fc [14]) | further results
1 | B1 |  |  |  |  |  |  |  |  |  |  |  |  | IC50 [1]: 3.94 µg/mL; Kd [2]: 6.5 nM; koff [2]: 0.00126 s⁻¹; kon [2]: 194000 M⁻¹ s⁻¹; IC50 [3]: 4.11 µg/mL; IC50 [4]: 3.5 µg/mL and 23 nM; Signal (O.D., 450 nm) (hFGFR4_D3:Fc (SABVA4799)): 0.105 O.D. 450 nm; Signal (O.D., 450 nm) (hFGFR4_D2:Fc (SABVA4796)): 3 O.D. 450 nm; Signal (O.D., 450 nm) (hFGFR4_D1:Fc (SABVA4794)): 0.185 O.D. 450 nm; binding result (hFGFR2-Fc [5]): no binding; binding result (hFGFR3-Fc [6]): no binding; binding result (hFGFR1-Fc [7]): no binding
2 | B2 | 0.692 nM | 0.000704 s⁻¹ | 1.01e+06 M⁻¹ s⁻¹ | 0.771 nM | 0.000617 s⁻¹ | 805000 M⁻¹ s⁻¹ | 3.62 OD 450 nm | 3.75 OD 450 nm |  |  |  |  | 
3 | B3 |  |  |  |  |  |  |  |  | 0 OD 450 nm | 2.73 OD 450 nm | -0.01 OD 450 nm | 0 OD 450 nm | 
4 | B4 | 2.28 nM | 0.000752 s⁻¹ | 330000 M⁻¹ s⁻¹ | 2.62 nM | 0.000631 s⁻¹ | 244000 M⁻¹ s⁻¹ | 3.62 OD 450 nm | 3.75 OD 450 nm |  |  |  |  | 
5 | B5 |  |  |  |  |  |  |  |  | -0.01 OD 450 nm | 1.87 OD 450 nm | -0.02 OD 450 nm | -0.01 OD 450 nm | 
